Reference: patent US20220242962A1 (APTEVO RESEARCH AND DEVELOPMENT, published 2022)
Numbering of substitutions follows the chain as printed.

B1: FXX01110 (bispecific antibody)
chain: EVQLVQSGAEVKKPGASVKVSCKASGYTFTSYWMNWVRQAPGQGLEWMGNIYPSGGSTNYAQKFQGRVTMTVDTSTSTVYMELSSLRSEDTAVYYCASFSDGYYAYAMDYWGQGTLVTVSSGGGGSGGGGSGGGGSGGGGSEIVMTQSPATLSLSPGERATLSCRASQSVSSYLNWYQQKPGQAPRLLIYYASRRHTGIPARFSGSGSGTDFTLTISSLQPEDFAVYYCQQGYNLPYTFGQGTKVEIKEPKSSDKTHTCPPCPAPPAAAPSVFLFPPKPKDTLMISRTPEVTCVVVDVSHEDPEVKFNWYVDGVEVHNAKTKPREEQYNSTYRVVSVLTVLHQDWLNGKEYKCAVSNKALPAPIEKTISKAKGQPREPQVYTLPPSRDELTKNQVSLTCLVKGFYPSDIAVEWESNGQPENNYKTTPPVLDSDGSFFLYSKLTVDKSRWQQGNVFSCSVMHEALHNHYTQKSLSLSPGGGGSPSSYVLTQPPSVSVAPGQTARITCGGNNIGSKSVNWFQQKPGQAPVLVVYDDSGRPSGIPARFSGSTSGNTATLTISRVEAGDEADYYCQVWDSSSDHVVFGGGTKLTVLGGGGSGGGGSGGGGSGGGGSQVQLVESGGGVVQPGRSLRLSCAASGFTLSYYGMHWVRQAPGKGLEWVAAISHDGSDKYYADSVKGRFTISRDNSKNTLYLQMNSLRAEDTAVYYCSNDQFDPWGQGTLVTVSSR
notes: ADAPTIR anti-4-1BB x anti-OX40, pI variant of the anti-OX40 scFv
B2: FXX01112 (bispecific antibody)
chain: B1 chain with I541V, A543S
notes: ADAPTIR anti-4-1BB x anti-OX40, pI variant
B3: FXX01113 (bispecific antibody)
chain: B1 chain with T690R
notes: as for B2
B4: FXX01114 (bispecific antibody)
chain: B1 chain with T690R
notes: as for B2
B5: FXX01116 (bispecific antibody)
chain: B1 chain with I541V, A543S, T690R
notes: as for B2
B6: FXX01117 (bispecific antibody)
chain: B1 chain with A543K, T690R
notes: as for B2
B7: FXX01118 (bispecific antibody)
chain: B1 chain with Q500K, T690R
notes: as for B2

biological target: T1, Full-length Human OX40 (human, UniProt P43489 29-277); experiment: cell-based or functional assay
T1 sequence: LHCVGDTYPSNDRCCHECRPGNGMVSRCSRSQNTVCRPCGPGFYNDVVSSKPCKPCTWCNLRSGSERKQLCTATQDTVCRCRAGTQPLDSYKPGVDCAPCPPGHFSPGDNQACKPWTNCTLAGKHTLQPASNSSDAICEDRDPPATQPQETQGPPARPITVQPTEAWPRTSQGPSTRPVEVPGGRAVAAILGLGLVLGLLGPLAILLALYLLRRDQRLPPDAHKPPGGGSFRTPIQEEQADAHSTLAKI

Binder	OX40 Reporter Assay EC50 [nM]	OX40 Reporter Assay Max induction
B1	0.017	5.9e+06
B2	0.019	6.17e+06
B3	0.016	6.1e+06
B4	0.018	6.08e+06
B5	0.017	5.95e+06
B6	0.018	6.22e+06
B7	0.016	6.28e+06

biological target: Full-length Human 4-1BB (human, UniProt Q07011 24-255); experiment: cell-based or functional assay

Binder	4-1BB Reporter Assay EC50 [nM]	4-1BB Reporter Assay Max induction
B1	0.021	1.38e+06
B2	0.014	1.45e+06
B3	0.019	1.37e+06
B4	0.018	1.43e+06
B5	0.019	1.39e+06
B6	0.02	1.41e+06
B7	0.018	1.38e+06

Biological target: T2, Cyno 4-1BB ECD-AFH (cynomolgus monkey)
T2 construct: entry includes the tags; also called FOB004; Cyno CD137 ECD-avi-flag-his
T2 chain: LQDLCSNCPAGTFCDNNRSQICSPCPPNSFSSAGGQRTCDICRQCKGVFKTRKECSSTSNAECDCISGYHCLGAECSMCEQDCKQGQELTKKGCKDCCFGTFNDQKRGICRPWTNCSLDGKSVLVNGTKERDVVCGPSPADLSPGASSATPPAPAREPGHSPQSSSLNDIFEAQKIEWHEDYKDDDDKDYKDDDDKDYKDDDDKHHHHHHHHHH
Experiment: SPR (Biacore 8K), construct captured, monovalent ECD
Description: (§1) Mouse anti-human IgG (GE, BR-1008-39) at 25 μg/ml in 10 mM sodium acetate pH 5.0 was immobilized at a density of ˜10,000 response units (RU) onto each flow cell of a CM5 research-grade sensor chip (GE) by standard amine coupling chemistry. Each binding protein at approximately 100 nM in HBS-EP+ with 0.2% BSA buffer was captured in a flow cell with the immobilized anti-human IgG at a flow rate of 10 μL/min for 20 seconds, leaving one flow cell surface unmodified as the reference. Using a single-cycle kinetics mode, five different concentrations of ECD were sequentially injected through each flow cell at 30 μL/min for 300 seconds followed by a 600 second dissociation period. Regeneration was achieved by injection of 3 M MgCl₂ at a flow rate of 30 μL/min for 30 seconds followed by HBS-EP+ with 0.2% BSA buffer stabilization for 1 min.
(§2) Sensorgrams obtained from kinetic SPR measurements were analyzed by the double subtraction method. The signal from the reference flow cell was subtracted from the analyte binding response obtained from flow cells with immobilized or captured ligands. Buffer reference responses were then averaged from multiple injections. The averaged buffer reference responses were then subtracted from analyte binding responses, and the final double-referenced data were analyzed with Biacore T200 Evaluation software (2.0, GE), globally fitting data to derive kinetic parameters. All sensorgrams were fitted using a simple one-to-one binding model.
(§3) Using the BIACORE 8K SPR system, the affinity of these constructs for human and cyno 4-1BB, and human and cyno OX40 ECD, were determined using the methods described above. Monovalent binding affinity was determined by capturing the ADAPTIR™ bispecific construct on the chip and injecting monovalent ECD of the target at multiple concentrations.

Binder	Kd [nM]	koff [s⁻¹]	kon [M⁻¹ s⁻¹]
B1	70	0.0077	110000
B2	77	0.008	100000
B3	82	0.0078	95000
B4	116	0.0091	79000
B5	81	0.0079	98000
B6	76	0.0072	96000
B7	80	0.0077	96000

Biological target: T3, Cyno OX40-AFH (cynomolgus monkey)
T3 construct: entry includes the tags; also called OXF005; cyno OX40 ECD
T3 chain: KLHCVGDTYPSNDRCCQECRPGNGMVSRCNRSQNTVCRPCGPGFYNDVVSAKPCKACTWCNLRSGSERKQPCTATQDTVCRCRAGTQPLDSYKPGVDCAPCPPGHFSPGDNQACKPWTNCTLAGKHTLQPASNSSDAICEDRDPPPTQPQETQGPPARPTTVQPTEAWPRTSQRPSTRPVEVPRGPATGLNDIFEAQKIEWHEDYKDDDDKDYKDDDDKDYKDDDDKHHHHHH
Experiment: as above
Description: as §1, §2, §3

Binder	Kd [nM]	koff [s⁻¹]	kon [M⁻¹ s⁻¹]
B1	< 1	0.00029	1.1e+06
B2	< 1	0.00031	870000
B3	< 1	0.00028	980000
B4	< 1	0.00028	1.1e+06
B5	< 1	0.00027	1e+06
B6	< 1	0.0002	1e+06
B7	< 1	0.00024	1.1e+06

biological target: T4, Human 4-1BB ECD-AFH (human); experiment: as above
T4 construct: entry includes the tags; also called FOB003; HUMAN CD137 ECD-AVI-FLAG-HIS
Description: as §1, §2, §3

Binder	Kd [nM]	koff [s⁻¹]	kon [M⁻¹ s⁻¹]
B1	18	0.0048	260000
B2	17	0.0045	260000
B3	15	0.0046	300000
B4	17	0.0045	270000
B5	17	0.0046	270000
B6	17	0.0042	250000
B7	17	0.0046	270000

Biological target: T5, Human OX40 ECD-AFH (human)
T5 construct: ECD'; entry includes the C-terminal tags; also called OXF003; Human OX40 ECD-avi-flag-his
T5 chain: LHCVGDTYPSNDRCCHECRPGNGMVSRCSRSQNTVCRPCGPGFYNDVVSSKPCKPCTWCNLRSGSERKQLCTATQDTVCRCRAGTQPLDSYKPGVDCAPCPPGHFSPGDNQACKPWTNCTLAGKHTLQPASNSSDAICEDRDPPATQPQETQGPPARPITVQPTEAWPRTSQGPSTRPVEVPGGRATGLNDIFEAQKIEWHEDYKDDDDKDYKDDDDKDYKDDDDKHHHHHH
Experiment: as above
Description: as §1, §2, §3

Binder	Kd [nM]	koff [s⁻¹]	kon [M⁻¹ s⁻¹]
B1	< 1	0.00036	910000
B2	< 1	0.00057	790000
B3	< 1	0.00031	890000
B4	< 1	0.00026	1.1e+06
B5	< 1	0.00044	880000
B6	< 1	0.0003	970000
B7	< 1	0.00031	840000

Biological target: T6, Full-length Cyno 4-1BB (cynomolgus monkey, UniProt Q07011 24-255 (human entry))
T6 construct: on Jurkat or CHO cells; also called FOB006; cynomolgus 4-1BB
T6 chain: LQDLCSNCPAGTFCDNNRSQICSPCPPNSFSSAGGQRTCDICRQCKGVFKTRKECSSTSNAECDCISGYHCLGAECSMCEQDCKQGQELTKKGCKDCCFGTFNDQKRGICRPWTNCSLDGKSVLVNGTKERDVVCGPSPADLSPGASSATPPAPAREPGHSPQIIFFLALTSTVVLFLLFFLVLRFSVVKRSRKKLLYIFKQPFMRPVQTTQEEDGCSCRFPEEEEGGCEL
Experiment: flow cytometry on Jurkat cells transfected with cynomolgus 4-1BB, goat anti-human Fc secondary antibody, MFI (Mean)
Description: (§4) Serial dilutions of ADAPTIR™ constructs were incubated with transfected target cells and subsequently labelled with a fluorescently-conjugated goat-a-human Fc secondary antibody. […] (See Example 25.)

Binder	EC50 (read off the curve) [nM]
B1	~0.3
B2	~0.3
B3	~0.3
B4	~0.3
B5	~0.3
B6	~0.3
B7	~0.3

Biological target: T7, Full-length Cyno OX40 (cynomolgus monkey, UniProt P43489 29-277 (human entry))
T7 construct: on CHO-K1SV cells; also called OXF004; cynomolgus OX40
T7 chain: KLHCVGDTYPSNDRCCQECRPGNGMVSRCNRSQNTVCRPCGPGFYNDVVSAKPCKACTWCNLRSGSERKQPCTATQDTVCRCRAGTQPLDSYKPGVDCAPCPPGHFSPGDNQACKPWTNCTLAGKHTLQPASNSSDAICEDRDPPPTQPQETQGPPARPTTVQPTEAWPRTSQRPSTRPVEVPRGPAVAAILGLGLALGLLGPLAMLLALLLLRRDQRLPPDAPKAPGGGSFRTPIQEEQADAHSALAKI
Experiment: flow cytometry on CHOK1SV cells transfected with cynomolgus OX40, goat anti-human Fc secondary antibody, MFI (Mean)
Description: as §4

Binder	EC50 (read off the curve) [nM]
B1	1 to 2
B2	1 to 2
B3	1 to 2
B4	1 to 2
B5	1 to 2
B6	1 to 2
B7	1 to 2
